Test results published in the nanobody polyreactivity screen of Harvey et al. (2022).

Assay: yeast display, Sf9 membrane polyspecificity reagent, FACS + sequencing; frameworks hold sequencing errors
Method in brief: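 Using colony PCR, genes from sorted yeast display clones were amplified, then sequenced on MiSeq at 2 × 250 and filtered by CDR length. The clones had been stained with 10% biotinylated, detergent-solubilized Sf9 membrane reagent for 1 hour at 4 °C and sorted by FACS into low and high (top ~1%) gates on anti-HA and streptavidin fluorescence. Polyreactivity labels come from the gate of origin.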

Row | Sequence | polyreactivity (PSR sort gate)
1 | QVQLVESGGGLVQAGGSLRLSCAASGFIFVRYALGWYSQAPGKEMELVAAIRRGGGDSSYYADSVKGRFTISRDNAKNTVYLQMNSLKPEDTAVYYCAARPAIERDYWGQGTQVTVSS | high polyreactivity
2 | QVQLVESGGGLVQAGGSLRVSCAASGLTFKINAMGWYRQEPGKERELVAAITWNGGRTYYADSVKGRFTISRDNAKNTVYLQMNSLKPEDTAVYYCAADGKYYHRRPGWPIYDYWGQGTQVTVSS | high polyreactivity
3 | QVQLVESGGGLVQAGGSLRLSCAASGRIFNKNAMGWYRQPPGKEREFVAAISRSGGRTYYADSVKGRFTISRDNAKNTVYLQMNSLKPEDPAVYFCAAEYRGVPRVVVDYDYWGQGTQVTVSS | high polyreactivity
4 | QVQLVESGGGLVQAGGSLRLSCAASGRIFYSYAMGWYRQAPGKERELVARITRGSSTYYADSVKGRFTISRDNAKNTVYLQMNSLKPEDTAVYYCAAAVYFQVAFAYYYWGQGTQVTVSS | low polyreactivity
5 | QVQHVESGGGLVQAGCSLRLSCAASGSIFSSYAMGWYRQAPGKERELVAAISQSGGDTYYADSVKGRFKISRDNAKNTVYLQMNSLKPEDTAVYYCAASVWFYPMDYWGQGTQVTVSS | low polyreactivity
6 | QVQLVESGGGLVQAGGSLRLSCAASGSIFFYYAMGWYRQAPGKERELVAAINWTGGRTYYADSVKGRFTISRDNAKNTVYLQMNSLKPEDTAVYYWAAEYYGQHDTYEYWGQGTQVTVSS | high polyreactivity
7 | QVQLVESGGGLVQAGGSLRLSCAASGITFYGYAMGWYRQAPGKERELVAAISESGGSTYYADSVKGRFTISRDNAKNTVYLQMNSLKPEDTAVYYCNAESYSTWSFGHRYEYDYWGQGTQVTVSS | low polyreactivity
8 | QVQLVESGGGLVQAGGSLRLSCAASGFTFDTYDMGWYRQAPGKERELVAAIDWSGVSTYYADSVKGRFTISRDNAKNTVYLQMNSLKPEDTAVYYCAADLWQYDIASWDYTYDYWGQGTQVTVSS | low polyreactivity
9 | QVQLVQSGGGLVQAGGSLRLSCADSGSIFEYYTMGWYRQAPGKERELVAAISDGGSTYYADSVKGRFTISRDNAKNTVYLQMYSLKPEDTAVYYCAAEYQQDFWVAVDYWGQGTQVSVSS | low polyreactivity
10 | QVQLVESGGGLVQAGGSLRLSCAASGSIFHNYDMGWYRQAPGKERELVADISRGGDTNYADSVKGRFTISRDNAKNTVYLQMNSLKPEDTAVYYCNATYWILDSPWWRETFDYWGQGTQVTVSS | low polyreactivity
11 | QVQLVESGGGIVQAGGSLRLSCAASGSTFYVNVMGRYRQAPGKERELVAGITIRDGATYYADSVKGRFTISRDNAKITVYLQMNSLNPEDTAVYYCARAGDGEYKRDYWGQGTQVTVSS | low polyreactivity
12 | QVHLVESGGGLVQAGGSLRLSCAASGSTLYRYAMGWYRQAPGKERELVATITRSGGSTYYADSVKGRFTISRDNAKNTVYLQINSLKPEDTAVYYCDAYRKVGGFSRGDYWGQGTKVTVSS | high polyreactivity
13 | QVQLVESGGGLVQAGGSLRLSCAASGRISSIYAMGCYRQAPGKERELVATISVRTTGTYYADSVKGRFTISRDNAKNTVYLQMNSLKPEDTAVYYCAAAKRRGYYVKYDYWGQGTQVTVSS | high polyreactivity
14 | QVQLVESGGGLVQAGGSLRLSCAASGSIFGGYGLGWYRQAPGKERELVAASTSGSSTYYADSVKGRFTISRDNAKNTVYFPMNSLKPEDTAVSYFAARPFPHSAYEGDYWGRGTQVTVSS | low polyreactivity
15 | QVQLVESGGGLVQAGGSLRLSCAASGRIFSIYGMGWYRQAPGKERELVAVISGSVGITYYADSVKGRFTISRDNAKHTVYLQMNSLKPEDTAVYYCNAKVRRRKYDYWGQGTQVTVSS | high polyreactivity
16 | QVQLVESGGGLVQAGGSLRLSCAASGSIFGFYMGWYRQAPGKERELVAAISGSGGNTYYADSVKGRFTISRDNAKNTVYLQMNSLKPEDTAVYYCAVRYPGSRYLISKNGYWGQGTQVTVSS | high polyreactivity
17 | QVQLVESGGCLVQAGGSLRLSCAASGSIFDYNAMGWYRQAPGKEREFVAAISSSAGSTYYADSVKGRFTISRDNAKNTVYLQMNSLKPEDTAVYDCAADWYDFSFPYYEYEYWGQGTQVTVSS | low polyreactivity
18 | QVQLVESGGGLVEAGGSLRLSCAASGSIFAVNTMGWYRKAPGKERELVASITRGGSTNYADSVKGRFAISRDNAKKSVYLQMNSQKPEDSAVYYCAARPTWWYDYWGQGNQVTVSS | high polyreactivity
19 | QVQLVESGGGLVQAGGSLRLSCAASGIIFDYYAMGWYRQAPGKERELVASISWSGGGTYYADSVKGRFTISRDNAKNTVYLEMNSLKPEDTAVYYCAADGSTVNAPRWSDPYDYWGQGTQVTVSS | low polyreactivity
20 | QVQLVESGGGLVQAGGSLRLSCAASGSTFKPNVMGWSRLAPGKERELVAAITSTDDPTYYADSVKGRFSISRDNAKNTVYLQMNSLKPEDTAVDYCAVESLRDDFEYDYWGQGTQVTVSS | low polyreactivity
21 | QDQLVESGGGLVQAGGSLRLICAASGSILSGYAMGWYRQAPGKERELVAAITSGGDTNYADSVKGRFTISRDNAKNTVYLQMNSLKPEDTAVYYCNRRGDFRIAYYDPMDYWGQGTQVTVSS | low polyreactivity
22 | QVQLVESGGGLVQAGGSLRSSCAATGRTFYYNGMGWYRQAPGKERELVATITNGGSTNYADSVKGRFTISRDNAKNTVYLQMNSLKPEDTAVSYCAKTLASDCYDYWGQGTQVTVSS | low polyreactivity

Row | Sequence | polyreactivity (PSR sort gate)
23 | QVQIVESGGGLVQAGGSLRLSCAASGFIFRRNAMGWYRQAPGKERELVATIRASGGRTYYADSVKGRFTISRDNAKNTVYLQRNSLKPEDTAVYYCNAGKAPYLRYDYWGQGTEVTVSS | high polyreactivity
24 | QVQLVESGGGLVQEGGSLRLSCAASGRLFGTYTMGWYRQAPGKERELVAAISWSGGNTYYADSVKGRFTISRDNAKNTVYLQMNSLKPEDTAVYYCNALYYRPPKWYGYWGQGTQVTVSS | high polyreactivity
25 | QVQLVESGGGLVQAGGSLRLSCAASGRIFGRNARGWYRQAPGKERELVAAISSSGGTYYADSVKGRFTISRYNAKNTVYLQMNSLKPEDTAVYYCNARVRTQQRWVDYWGLGTQVTVSS | high polyreactivity
26 | QVQLVESGGGLVKAGGCLRISCAASGRIFGSYAMGWYREAPGIERELVASIRSGGRTKYADSVKGRFTISRDNAKKTVYLQMNSLKPEDTAVYYCDVPIQWDYGYWGQGTQVTVSS | low polyreactivity
27 | QVQLVESGGGLVQAGGSHRLSCAASGITFRRYAMGWYRQAPGKERELVARITDRGSTYYADSVKGRFTSSRDNAKNTVYLQMNSLKPEDTAVYYCAARGYRGLVQLRYGYWGQGTQVTVSS | high polyreactivity
28 | QVQLVESGGGLVQAGGSLRLSCAPSGSTLYFYAMGWYRQAPGKERELDADITWSGGSTYYADSVKGRFTISRDNAKNTVYLQMNSLKPEDTAVYYCNADDWSTYWYGYPGYVYWGQGTQVTVSS | high polyreactivity
29 | QVQLVESGGGLVQAGGSLRLSCAASGITFYVYAMGWYRQAPGKERELVAAINYDSGSTYYADSVKGRFTISRDNAKNTVYLQMNSLKPEDTAVYYCATDGVNPFYAYDFWGQGTQVTVSS | low polyreactivity
30 | QVQLVESGGGLVQAGGSLRLSCAASGSIFTDNAMGWYRQAPGKERELVAAITGRGGNTYYADSVKGRFPISRDIAKNPVYLQMNSLKPEDTAVYYCAARIFRTRKPLGYWGQGTQVTVSS | high polyreactivity
31 | QVQLVESGGGLVQAGGSLRLSCAASGFIFNAYAMGWYRQAPGKERELVAAISTRGSNTYYADSVKGRFTISRDNAKNTVYLQMNSLKPEDTAVYDCAARGYVTYSKSNYWGQGTQVTVSS | high polyreactivity
32 | QVQLVESGGGLVQAGGSLRLSCAASGIIFTLYATGWYRQAPGKERELVAAISGSGGSTYYADSVKGRFTISRDNAKNTVYLQMNSLKPEDTAVYYCAARGVRGTGLDSRMYYWGQGTQVTVSS | high polyreactivity
33 | QVQLVESGGGLVQAGGSLRLSCAASGTIFPTYAMGWYRQAPGKERELVAAISSIVGGTYYAHSVKGRFTISRDNAKNTVYLQMNSLKPEVTAVYYCAAPEDKYQHCIYGAYGVDYWGQGTQVTVSS | low polyreactivity
34 | QVQLVESGGGLVQAGGSLRLSCAASGFTFWDYAMGWYRQAPGKESELVAAISDNDGSTDYADYVKGRFTISRDNAKNTVYLPMNSLKPEDTAVYYCNGEIELPSKEGDYWGQGTQVTVSS | low polyreactivity
35 | QFQLVESGGGLVQAGGSLRLSCAASGSIFSVYTKGRYRQAPGKERELVAAISTGGGSTYYADSVKGRFTISRDNAKNTVYLQMNSLKPEDTALYYCATDYGWAPSYWYDSCGQGTQVTVSS | low polyreactivity
36 | QVQLVESGGGLVQAGGSLRLSCAASGRTLGRNAMGWYRQAPGKVRELVASISSGGSTNYAYSVKGSFTISRDNAKNTVYLQMNSQKPEDTEVYYCNKRYRSLYSSGYDYWGQVTQVTVSS | high polyreactivity
37 | QVQLVESGGCLVQAGGSLRLSCAASGRTFYSYAMGWYRQAPGKERELVAAISYTGASTFYADSVKGRFTISRDNAKNTVYLQMNSLKPEDTAVYYCAARKVRFAVDYWGQGTQVTVSS | high polyreactivity
38 | QVQLVESGGGLVQAGGSLRLSCAASGRIFYYYAMGWSRQAPGKERELVAAITRRGGSTYYADSVKGRFTISRDNAKNTVYLQMNSLKPEDPADYYCAKPDRTGWLDGEYWGQGTQVTVSS | low polyreactivity
39 | QVQLVESGGGLVQAGGSLRLSCAASGYTFAPYVMGWYRPAPGKERELVARISNNGGSTYYADSVKGRFTISRDNAKNTVYLQMNSLKPEDTAVYYCAADVGLIYFRYYYWGQGTQVTVSS | low polyreactivity
40 | QVQLVESGGGLVQAGGRLRLTCAASGFIFGYYTMGWYRQAPGKERELVASITRGGSTNYADSVKGRFTISRDNAKNTVYLQMNSLKPEDTAVYYCAKRYAQTYSVSRYYYWGQGTQVTVSS | high polyreactivity
41 | QVNHVESGGGLVQAGGSLRLTCAASGRTFSRYVMGWYRQSPGKERELVAAISRTGGRTYYADSVKGRFTISRDNAKNSVYLQMNSLNPEDTAVYYCYAGTVLISTYDYWGQGTQVTLSS | high polyreactivity
42 | QVQLVESGGGLVQAGGSLRLSCAASGSTFPFNAMGWYRQAPGKERELVAGIRSRGGSTYYADSVKGRFTISRDNAKNTVYLQMNSLIPEDTAVSSCAKVYKDRDDLFYYWGQGTQVTVSS | low polyreactivity
43 | QVQLVESGGGLVQAGGSLRLSCAASGRIFGAYAMGWYRQAPGKERELVAAITSRGGNTYYADSVKGRFTISRDNAKNTVFLQMNSLKPEDTAVYYCAARHDTRRQYYVGQSAFDYWGQGTQVTVSS | low polyreactivity
